{"source": "paper PMC7111943", "biological_target": "T1, GST-N (TGEV nucleocapsid protein) (Transmissible gastroenteritis …, UniProt P04134 1-382)", "T1 sequence": "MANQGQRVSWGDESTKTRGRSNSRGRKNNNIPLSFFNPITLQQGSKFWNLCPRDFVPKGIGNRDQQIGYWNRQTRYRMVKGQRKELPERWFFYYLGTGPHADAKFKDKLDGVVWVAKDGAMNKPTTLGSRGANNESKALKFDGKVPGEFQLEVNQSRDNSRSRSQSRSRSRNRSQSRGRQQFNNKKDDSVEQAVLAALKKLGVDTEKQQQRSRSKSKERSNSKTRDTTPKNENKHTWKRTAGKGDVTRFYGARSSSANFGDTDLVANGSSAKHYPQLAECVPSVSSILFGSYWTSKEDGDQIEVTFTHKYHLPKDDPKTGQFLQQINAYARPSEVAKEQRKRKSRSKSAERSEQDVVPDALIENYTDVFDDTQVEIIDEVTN", "experiment": "EMSA", "data": [{"binder": "UCGAACUAAACGAAAU (ssRNA)", "note": "[TRS-L]", "values": [{"measurement": "binding result", "result": "binds"}]}]}
